Results reported in the nanobody polyreactivity screen of Harvey et al. (2022).

Assay: yeast display, Sf9 membrane polyspecificity reagent, FACS + sequencing; frameworks hold sequencing errors
Procedure, shortened: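 Nanobodies came from a synthetic yeast display library in Saccharomyces cerevisiae BJ5465, induced with galactose for 36–48 hours and stained for 1 hour at 4 °C with 10% biotinylated, detergent-solubilized Sf9 membrane reagent. Cells were enriched on streptavidin microbeads and then FACS-sorted, with low and high (top ~1%) gates set on anti-HA fluorescence for expression and streptavidin fluorescence for reagent binding. Each polyreactivity label reflects the gate a clone came from. Genes were amplified by colony PCR, sequenced by MiSeq 2 × 250 and filtered by CDR length.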

Sequence | polyreactivity (PSR sort gate)
QVQRVESGGGLVQAGGSLRLSCAASGSTFYAYAMGWYRQSPGKERELVATITWSGGSTFYADSVKGRFTISRDNAKNTVYLQMNSLKPEDTAVYYCAARSRFPTIADGDYWGQGTQVTVSS | low polyreactivity
QVQLVESGGGLVQAGGSLRLICAASGRSFTSNAMGWYRQAAGKEWELVAAINFRGDSTYYADSVKGRFTISRDNAKNTVYLQMNSLKREDTAVYYCAAVGGRSSYRLDYWGQGTQVTVSS | low polyreactivity
QVQLQESGGGLVQAGGSLRLSCAASGSIFYEFYMGWYRQAPGKERELVAAIANGASTHYADSVKGRFTISRDNSNNTVYLQMSSLKQEDTAVYYCAVNTTSDIDYIYWGQGTQVNVSS | low polyreactivity
QVQLVESGGGLVQAGGSLRLSCAASGLTFRYNAMGWYRQAPGKERELVARISRNGGRTYYADSVKGRFTISRDNAKNTVYLQMNSLKPEDTAVYYCNVVYFVTTSPCYDYWGQGTQVTVSS | high polyreactivity
QVQLVESGGGLVQAGGSLRLSCAAYGRTLRGYAMGWYRQAPGKERELVAALTWSGGSTYYADSVKGRFTISRDHAKNTVYLQMNSLKPEDTAVYYCNARSYPDLYDYWGQGTQVTVSS | low polyreactivity
QVQLVESGGGLVQAGGSLRLSCAASGSTFETYAMGWYRQAPGKEMELVAAISKTGARTYYADSVKGRFTISRDNAKNTVYLQMNSLKPEDTAVYYCAAERKAHRKPHSRVDKYYYWGQGTQVTVSS | high polyreactivity
QVQLVESGGGLVQAGGSLRLSCAASGRIFLRNVMGWYRQAPGKERELVAAISARGGSTYYADSVKGRFTISRDNGKNSVYLQMNSLKPEDTAVYYCAAGYPVSPSKYYYWGQGTQVTVSS | high polyreactivity
QVQLVESGGCLVQEGGSLRLSCAASGRIININAMGWSRHAPGKEREMVAAITWRSGSTYYADSVKGRFTISRDNAKNTVYLQLNSLKPEDTAVYFCAADFSQTRRPIRFYYWGQGTQVTVSS | high polyreactivity
QVQLVESGGGLVQAGGSLRLSCAASGSTFSYYAMGWYRQAPGKERELVAAISWSGGSTYYADSVKGRFTISRDNAKNTVYLQMNSLKPEDTAVYYCAIVTRKTYYVGNGDYWGQGTQVTVSS | high polyreactivity
QVQLVESGGGLVQAGGSLRLSCAASGPTFWVYAMGWNRQAPGKERELVAAISRSGVSTYYADSVKGRFTISRDNAKNTVYLQMNSLKPEDTAVYYCAAPLIYTPLKYHYWGQGTQVTVSS | low polyreactivity
QVQLVESGGGLVQAGGSLRLICAASGRTLRRYAMGWYRQAPGKERELVAAISRSGSSTYADSVKGRFTISRDNAKNTVYLQMHSLKPEDTAVYYCNAYQPRYGYWGQGTQVTVSS | high polyreactivity
QVQLVESGGGLVQAGGSLRLSCAASGITVWIYAMGWYRQAPGKERELVAAITGRGGSTYYADSVKGRFTISRDKAKNTLYLQRNSLKPEDTAVYYCAAESWYSTYDYWGQGTQVTVSS | high polyreactivity
QVQLVESGGGLVQAGGTLRLSCAASGFIFGYNAMGWYRQAPGKERELVARINSGGNTNYADSVKGLFSISRDNAKNTVYLLMNSLKPEDTAVYYCARDASNRYDYWRQGTQVTVSS | low polyreactivity
QVQLVESGGGLVQAGGSLRLSCAASGIIFGYYAMAWYRQAPGTERELVAAITSGASTDYADSVKGRFTISRDNAKNNVYLQMNSLKPEDTAVYYCNADTSASTYTFPFDYWGQGTQVTVSS | low polyreactivity
QVQLVESGGGLVQAGGSLRLSCAASGRTFGYYAMGWYRQAPGKERELVAAISGNGDNTYYADSVKGRFTISRDNAKNTVYLQMNCLIPEDTAVYYCSLWYRYKYAPYRLHGYWGQGTQVTVSS | high polyreactivity
QVQLQESGGGLVQAGGSLRLSCAASGNIFEADIMGWYHQAHGKERELVASITDGGSTNYADSVKGRFNIKRDNAKNIVYLQMNSLKPEDTAVYYCAAIAYPDIATYFDYDSDYFYWGQGTQVTVSS | high polyreactivity
QVQLVESGGGLVQAGGSLRLSCAASGIIFRFYAMGWYRQAPGKERELVAVITSRSDSTYYADSVKGRFTISRDNAKNTVYLQMNSLKPEDTAVYYCNARYPWYYRYSTYDYWGQGTQVTVSS | high polyreactivity
QVQLEESGGGLVQAGGSLRLSCAASGSIYYLNAMGWYRQAPGKERELVAAINSGGTTNYADSVKGRFTISRDNAKYTVYLQMNSLKPEDTAVYYCATDGYYYYYRVYKFDYWGQGTQVTVSS | low polyreactivity
QVHLVDSGGGLVQAGGSLRLSCAASGYIFPYNAMGWYRQEPGKERELVATITGTGGSTYYADSVKGRFTISRDNAKITVYLQMNSLKPEDTAVFYCAADLSIRYDHEYGYWGQGTQLTVSS | low polyreactivity
QVQLVESGGGLVQAGGSLRLSCAASGRIFVRYAMGWYRQAPGKERELVATITKNGGRTYYADSVKGRFTISRDNAKNTVYLQMNSLKPEDTAVYYCAARPTYVADHLRYGYWGQGTQVTVSS | high polyreactivity
QVQLVESGGGLVQAGGSLRLSCAASGSIFVHNAMGWYRHAPGKERELVAAITWSGGSTYYADSVKGRFTISRDNAKNTVYLQMNSLKPEDTAVYYCAAEDVAAQWAYESPTSYWYYYWGQGTQVTVSS | low polyreactivity
QVQLVESGGGLVQAGGSLRLSCAASGRTFAYNTMGWYRQAPGKERELVARINSGTSTYYADSVKGRFTISRDNAKNTVYLQMNRLKPEDTAVYYCNAYSWYGYDYWGQGTQVTVSS | high polyreactivity

Sequence | polyreactivity (PSR sort gate)
QVQLVESGGGLVQAGGSLRLSCAASGGIFGSYAMGWYRQAPGKERELVAAISGGSTYYADSVKGRFTISRDNAKNTVYLQMTSLKPEDTAVYYCAAGWSVWYQDFDYWGQGTQVTVSS | high polyreactivity
QVQLVESGGGLVQAGGSLRLSCAASGSTFAKYAMGWYRQAPGKERELVAAISLSGGSTYYADSVKGRFTISRDNAKNTVYLQMNSLKPEDTAVYYCNTPPSRYVRYGIYRYDYWGQGTQVTVSS | high polyreactivity
QVQLVESGGGLVQAGGSLRLSCAASGNTFPGYAMGWYRQAPGKEREFVATITSNDGTTYYADSVKGRFTISRDNAKNTVYLQMNSLKPEDTAVYYSAKRLSDSWPPNWGYNYWGQGTQVTVTS | low polyreactivity
QVQLLESGGGLVQAGGSLRLSCAAYGSTFGYNDMGWYRQAPGKVRELVAAITRRSGSTYYADSVKGRFTISRDNAKNSVNLQMNSLKPEDTAVYYCAASYHYGDRWPIRMDYWGQGTQVTVSS | low polyreactivity
QDQLVESGGGLVQARGSLRLSCASSGSTFDTNTMGWYRQAPGKERELVASNSRGTSTKYADSVKGRFTISRDNAKNTVYLQMNSLKPEDTAVYYCNAVSRDKSLYDYWGQGTQVTVSS | high polyreactivity
QVQLVESGGGLVQAGGTLRLSCAASGRTFYFYAMGWYRQAPGKERELVAAITSRVGRTYYADSVKGRFTISRDNAKNTVYLQMNSLKPEDTAVYYCAAEGVYRMGYWGQGTQVTVSS | high polyreactivity
QDQLVESGGGLVQAGGSLRLSCAASGRIIQYYDMGWYRQAPGKERELVAAITSNGGRTYYADSVKGRFTISRDNAKNTVFLLMNILKPEDTAVYYCAKTFDFSAYPPLTLKYGYWGQGTQVTVSS | high polyreactivity
QVQLVESGGGLFQAGGSLRFSCAASGIIFSTNAMGWYRQAPGKERELVATITSSSGRTYYADSVKGRFTISRDNAKNTLYLQMNSLKPEDTAVYYCATGGVLIKGHYYWGQGTQVTVSS | low polyreactivity
QVQLVETGGGLVQAGGSLRLSCAASGRTFRWYAMGWYRQAPGKERELVADISSVGSTDYADSVKGRFTISRDNAKNTVYLQMNSLKPEDTAVYYCAADFSPRRYHNRSFGYWGQGTQVTVSS | low polyreactivity
QVQLVESGGGLGQAGGSLRLSCAASGYIFPIYAMGWYRQAPGKERELVAAITESGGSTYYADSVKGRFTISRDNAKNTVYLQMNSLKQEDTAVYYCAKEVVKHPRGKLDYWGQGTQVTLSS | low polyreactivity
QVQLVESGGGLVQAGGSLRLSCAASGRIFNRYGMGWYRQAPGKERELVAAITWRGGNTYYADSVKGRFTISRDNAKNTVYLQMNSLKPEDTAVYYCAADGGYSAYFGAYDYWGQGTQVTVSS | high polyreactivity
QVQLVESGGGLVQAGGSLRLSCAASGSIFSDNAMGWYRQAPGKERELVAAITYSGGRTSYADSVKGRFTISRDNAKNTVYLQMNSLKPEDTAVYYCAVGSHSRSSNSYYYWGQGTQVTVSS | low polyreactivity
QVQLVESGGGLVQAGGSLRLSCAASGFTFYTYTMGWYRQAPGKERELVAVITSRGTRTYYADSVKGRFTISRDNAKNTVYLQMNSLKPEDTAVYYCNKGAGWSFGYWGQGTQVTVSS | high polyreactivity
QVQLVESGGGLVQAGGSLRLSCAASGRIFGKNAMGWYRQAPGKERELVAAIRGNGGSTYYADSVKGRFTISRDNAKNTVYLQFNSLKPEDTAVYYCAARASAYFGRYYLYDYWGQGTQVTVSS | high polyreactivity
QVQLVESGGGLVHAGGRLRLSCAASGRIFGRNAMGWYRPPPGKERELVAAITKSGGRTYYADSVKGRFSISRVNAKNNVYFQMICLKPEDNAVYYCNRIVTFGWQYDFDFWGQGTQVTVSS | high polyreactivity
QVQLVESGGGLVQAGGSLRLSCAASGRIFITNTMGWYRQAPGKERELVAAISRTGGSTYYADSVKGRFTISRDNAKNTVYLQMNSLKPEDTAVYYCNADWYGQLWWGVDYWGQGTQVTVSS | high polyreactivity
QVQLVESGGGLVQAGGSLRLSCAASGGTFWYYAMGWDRQAPGKERELVAAINWSGDSTYADSVKGRFTISRDNAKNTVYLQMNSLKPEDTAVYYCNADVWYYRMDYWGQGTQVTVSS | low polyreactivity
QVQRVESGGGLVQAGGSLRLSFAAAGGILYPYAMGWYRQAPGKERELVAAITSSGSTYYADSVKGRFTISRDNAKITVYLQMNSLNPEDHAVYYCAITLPTRNKLRSGREYDYWGQGTQVTVSS | low polyreactivity
QVQLVESGGGLVQAGGSLRLSCAASGRIFTYYGMGWYRQAPGKERELVAAISWSGGSTYYADSVKGRFTISRDNAKNTVYLQMNSLKPVDTAVYYCNAASRYGGDYWGQGTQVTVSS | high polyreactivity
QVQLVESGGCIVQAGGSLRLSCSASGLLFYINPMGWYRQAPGKEREFVAGINRNGGSTYYADSVKGRFTISRDNALYSVYLQMNSLKPEDTAVYYCNADQYWDRYFSWGQGTQGTVSS | low polyreactivity
QVQLVESGGGLVQAGGSLRLSCAASGFTFGSYARGWYRQAPGKERELVAAISWGGGSTYYADSVKGRFTISRDNAKNTVYLQMNSLKPEDTAVYYCNADAISSFGYWGQGTQVTVSS | high polyreactivity
